Legend:
Assay in all cases: pull-down
[1] = biological target: His-ImuB-L378A (M. smegmatis) (M. smegmatis)
[2] = biological target: His-ImuB-L378A+V383A (M. smegmatis) (M. smegmatis)
[3] = biological target: His-ImuB-V383A (M. smegmatis) (M. smegmatis)

- fold less pulled down than by His-ImuB [1]: 1.5 fold
- fold less pulled down than by His-ImuB [2]: 3 fold
- fold less pulled down than by His-ImuB [3]: 1.5 fold
Substance: Strep-VFP-tagged ImuA’ (M. smegmatis) (natural protein)
